EP2441771A1, “New 12alpha-hydroxysteroid dehydrogenase mutants, method for their manufacture and application thereof” (PharmaZell GmbH, priority 2010, dated 2012)

How the values were obtained:
[1] = test system: C[C@H](CCC(=O)O)[C@H]1CC[C@H]2[C@@H]3[C@H](O)C[C@@H]4C[C@H](O)CC[C@]4(C)[C@H]3C[C@H](O)[C@]12C; experiment: Enzyme kinetics (Michaelis-Menten) in microtiter plate photometer, cell lysate; type: biochemical, Clostridium sp. group P strain 48-50; settings: other: WT; constant 100 µM NADP^+, 6 µM to 10 mM Cholsäure (32 concentrations); nonlinear regression
Source text: (§1) Für jede der Mutanten sowie für das Wildtyp-Enzym wurden Kinetikmessungen im Mikrotiterplattenphotometer durchgeführt, indem die Umsatzraten der Enzyme sowohl mit gleichbleibenden Substratkonzentrationen bei variierten Kofaktorkonzentrationen als auch vice versa aufgezeichnet wurden. Zur Bestimmung der spezifischen Enzymaktivität wurden die Enzymkonzentrationen im Zelllysat densitometrisch bestimmt.
(§2) Zur Ermittlung der Abhängigkeit der Substratumsatzgeschwindigkeit von der Substratkonzentration wurde eine Kofaktorkonzentration von 100 µM NADP^+ eingesetzt, während die Substratkonzentration über einen Bereich von 6 µM bis 10 mM Cholsäure mit 32 verschiedenen Konzentrationen variiert wurde.
(§3) Zur Ermittlung der Abhängigkeit der Substratumsatzgeschwindigkeit von der Kofaktorkonzentration wurde eine Substratkonzentration von 10 mM Cholsäure bezogen auf das Reaktionsvolumen eingesetzt, während die Kofaktorkonzentration über einen Bereich von 2 µM bis 100 µM NADP^+ mit 16 verschiedenen Konzentrationen beim Wildtypprotein bzw. über einen Bereich von 2 µM bis 1000 µM NADP^+ mit 24 verschiedenen Konzentrationen bei den beiden Mutanten variiert wurde (jeweils bezogen auf den Raktionsansatz).
(§4) Über das eingesetzte Volumen an Zelllysat lässt sich die volumenbezogene Enzymaktivität berechnen. Zusammen mit den bestimmten Enzymkonzentrationen lassen sich die spezifischen Enzymaktivitäten berechnen. […]

[2] = test system: NC(=O)c1ccc[n+]([C@@H]2O[C@H](COP(=O)([O-])OP(=O)(O)OC[C@H]3O[C@@H](n4cnc5c(N)ncnc54)[C@H](OP(=O)(O)O)[C@@H]3O)[C@@H](O)[C@H]2O)c1; experiment: as above; type: biochemical, Clostridium sp. group P strain 48-50; settings: other: WT; constant 10 mM Cholsäure, 2 µM to 100 µM NADP^+ (16 concentrations); nonlinear regression
Source text: as §1, §2, §3, §4

Q: Which Km [1] does the source give for “12α-HSDH (WT), Wildtyp-Enzym, Clostridium sp. group P strain 48-50, SEQ ID NO:6 (Clostridium sp. ATCC 29733)” here?
A: 136 ± 12 µM

Q: What about the Km [2] of the same substance?
A: 21,4 ± 2,3 µM
